Measurements taken from publication PMC7060239 (2020).

T1: PHD finger of human UHRF1 (residues 299–366) (human, UniProt Q96T88 299-366)
T1 chain: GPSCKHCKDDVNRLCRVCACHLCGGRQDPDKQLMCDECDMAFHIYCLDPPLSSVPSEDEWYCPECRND

T2: human DNMT1 RFTS domain, residues 351–600 (human, UniProt P26358 351-600)
T2 chain: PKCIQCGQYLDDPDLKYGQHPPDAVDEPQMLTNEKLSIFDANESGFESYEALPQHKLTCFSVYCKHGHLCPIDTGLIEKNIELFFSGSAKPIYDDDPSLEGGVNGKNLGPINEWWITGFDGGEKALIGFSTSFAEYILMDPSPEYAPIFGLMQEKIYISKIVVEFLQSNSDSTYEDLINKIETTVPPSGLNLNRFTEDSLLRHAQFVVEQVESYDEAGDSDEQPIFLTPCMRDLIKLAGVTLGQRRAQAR

B1: PAF15_(2-30) unmodified (peptide)
chain: VRTKADSVPGTYRKVVAARAPRKVLGSST
modifications: unmodified (no ubiquitin); taken as wild-type K15/K24, since the text describes K15C/K24C only for preparing the ubiquitylated analogs

What was measured:
[1] = biological target: T1, PHD finger of human UHRF1 (residues …); test: ITC
[2] = biological target: T2, human DNMT1 RFTS domain, residues …; test: ITC

Binder	Kd [1]	Kd [2]
VRTAADSVPG [hPAF15_(2-11)-K5A peptide]	5.7 µM	–
B1	–	6 µM
